From patent publication US12331106B2, “Anti-angiopoietin-2 antibodies that induce Tie2 activation” (Institute for Basic Science, priority 2018, dated 2025)
Entries after “also recorded” stand apart in the source; their conditions may differ. Like-named read-outs stand apart in the source and are kept apart here.

What was measured:
[1] = system: choroidal neovascularization (CNV); experiment: Laser-induced CNV model, intravitreal injection: CNV regression and vascular leakage; type: in vivo, mice; details: 5 μg intravitreal at 7 days
Protocol: 2C8H11 antibody was tested for its ability to inhibit choroidal neovascularization (CNV), the hallmark of wet age-related macular degeneration (AMD) using laser-induced CNV model. After dilation of pupils with 5 mg/ml phenylephrine and 5 mg/ml tropicamide eye drops (Santen Pharmaceutical) and instillation of 0.5% proparacaine hydrochloride eye drops (Alcon) for topical anesthesia, laser photocoagulator (Lumenis Inc.) with a slit lamp delivery system was used with a glass coverslip as a contact lens to visualize the retina. Sufficient laser energy (532 nm wavelength, 250 mW power, 100 ms duration, 50 μm spot size) was delivered in 4 locations for each eye (the 3, 6, 9 and 12 o'clock positions of the posterior pole). Only burns that produced a bubble at the time of laser photocoagulation, indicating the rupture of the Bruch's membrane, were included in this study. Spots containing hemorrhage at the laser site were excluded from the analysis. To recapitulate a clinical situation, 2C8H11 (5 μg) was administered intravitreally to the mice at 7 days after laser photocoagulation (FIG. 13A). As a control or as for comparison, Fc or VEGF-Trap (5 μg each) was administered in the same manner to the mice. To intravitreally administer indicated reagents, ˜1 μl (5 mg/ml) containing 5 μg of each reagent was injected into the vitreal cavity using the Nanoliter 2000 micro-injector (World Precision Instruments) fitted with a glass capillary pipette. CD31+CNV volumes of the retinal pigment epithelium (RPE)-choroid-sclera flat mounts were calculated using the MATLAB® Image Processing Toolbox™ (Math Works, a comprehensive set of reference-standard algorithms and workflow apps for image processing, analysis, visualization, and algorithm development) at 14 days after laser photocoagulation. Anti-CD31 antibody (1:200, Millipore®) was used for the detection of endothelial cells of CNV. […] Combined fluorescein angiography (FA) and indocyanine green angiography (ICGA) enabled us to measure vascular leakage at the neovessels around the laser injury site. Continuous-wave laser modules at 488 nm and 785 nm were used as excitation sources for fluorescein and ICG, respectively. A raster scanning pattern of excitation lasers was achieved by a scanner system consisting of a rotating polygonal mirror (MC-5; Lincoln Laser) and a galvanometer-based scanning mirror (6230H; Cambridge technology), and delivered to the back aperture of an imaging lens. A high numerical aperture (NA) objective lens (PlanApo λ, NA 0.75; Nikon) was used as the imaging lens to provide wide-field fundus fluorescence images. Fluorescence signals detected by photomultiplier tubes (R9110; Hamamatsu Photonics) were digitized by frame grabber and reconstructed to images with size of 512×512 pixels per frame in real time. To visualize late-phase (6 min) FA and ICGA images utilizing the angiography system, 10 mg of fluorescein sodium (Alcon) and 0.15 mg of ICG (Daiichi Pharmaceutical) were administered intraperitoneally and intravenously, respectively. The imaging procedure was performed under systemic anesthesia and pupil dilation to improve the quality of images. Leaky areas from CNV were calculated as the total measured hyperfluorescent areas in FA images divided by the total measured CNV areas in ICGA images using a Java-based imaging software (ImajeJ; National Institutes of Health). […] Thus, the magnitude of the suppression of CNV and vascular leakage was quantitatively indistinguishable between VEGF-Trap and 2C8H11 in the mouse model of laser-induced CNV.

hAng2-RBD = molecular target: T1, hAng2-RBD (Homo sapiens, UniProt O15123); type: binding; details: for Relative Uptake (Da) Δ: 4B9
T1 construct: made in house; host or cells: HEK293F
T1 sequence (O15123 276-496): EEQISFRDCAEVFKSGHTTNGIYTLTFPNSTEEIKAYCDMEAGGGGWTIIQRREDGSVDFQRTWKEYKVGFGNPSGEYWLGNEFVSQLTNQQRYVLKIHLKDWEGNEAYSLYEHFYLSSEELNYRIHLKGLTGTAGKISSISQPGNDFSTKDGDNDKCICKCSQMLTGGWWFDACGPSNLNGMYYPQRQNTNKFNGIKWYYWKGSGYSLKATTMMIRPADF
Protocol: The antigenic determinants (epitopes) of hAng2 recognized by mouse monoclonal antibodies, 2C8 and 4B9, were analyzed by HDX-MS (Hydrogen/deuterium exchange-mass spectrometry) technique. HDX-MS analysis methods are described in the following articles; Houde D, Engen J R (2013) Methods Mol. Biol. 988: 269-89 and Houde et al. (2011) J. Pharm. Sci. 100 (6), 2071.
Recombinant hAng2-RBD protein was used to analyze the epitopes of antibodies 2C8 and 4B9. […] The prepared hAng2-RBD/antibody complexes were diluted 15 times with deuterium labeling buffer, labeled at various time, and then quenched with the same volume of quenching buffer. The labeling reaction time was 0 min (undeuterium), 0.33 min, 10 min, 60 min and 240 min. However, in undeuterium condition, the deuterium labeling buffer was replaced with equilibrium buffer and the reaction was immediately stopped with quenching buffer. For mass spectrometry, the deuterium labeled hAng2-RBD/antibody samples were loaded on a pepsin column and peptide digestion was proceeded.
The deuterium uptake difference between hAng2-RBD alone and the hAng2-RBD-antibody complex conditions was comparatively analyzed, and a region showing a distinct decrease in the deuterium uptake is either a peptide to which the antibody binds directly, or a structurally changed region. When the deuterium uptake difference between hAng2-RBD alone and the hAng2-RBD-antibody complex was 0.5-1 Da or more, it was considered significant.
In the case of antibody 4B9, it cannot be ruled out that an undetermined region (residues 25 to 40 of SEQ ID NO: 2) can be included in the scope of the epitope. The epitope analysis results for each antibody are shown in different colors on the 3D structure of hAng2-RBD, which was generated using PyMol software (FIG. 2).

[2] = residues 14-23 (SEQ ID NO: 2), exposure time 0.00 min
[3] = residues 14-23 (SEQ ID NO: 2), exposure time 0.33 min
[4] = residues 14-23 (SEQ ID NO: 2), exposure time 10.00 min
[5] = residues 14-23 (SEQ ID NO: 2), exposure time 60.00 min
[6] = residues 14-23 (SEQ ID NO: 2), exposure time 240.00 min
[7] = residues 14-24 (SEQ ID NO: 2), exposure time 0.00 min
[8] = residues 14-24 (SEQ ID NO: 2), exposure time 0.33 min
[9] = residues 14-24 (SEQ ID NO: 2), exposure time 10.00 min
[10] = residues 14-24 (SEQ ID NO: 2), exposure time 60.00 min
[11] = residues 14-24 (SEQ ID NO: 2), exposure time 240.00 min
[12] = residues 41-47 (SEQ ID NO: 2), exposure time 0.00 min
[13] = residues 41-47 (SEQ ID NO: 2), exposure time 0.33 min
[14] = residues 41-47 (SEQ ID NO: 2), exposure time 10.00 min
[15] = residues 41-47 (SEQ ID NO: 2), exposure time 60.00 min
[16] = residues 41-47 (SEQ ID NO: 2), exposure time 240.00 min
[17] = residues 47-60 (SEQ ID NO: 2), exposure time 0.00 min
[18] = residues 47-60 (SEQ ID NO: 2), exposure time 0.33 min
[19] = residues 47-60 (SEQ ID NO: 2), exposure time 10.00 min
[20] = residues 47-60 (SEQ ID NO: 2), exposure time 60.00 min
[21] = residues 47-60 (SEQ ID NO: 2), exposure time 240.00 min

B1: 2C8H11: humanized anti-Ang2 human IgG1 antibody from mouse 2C8; VH SEQ ID NO: 55, VL SEQ ID NO: 56 (antibody, V domains shown)
VH: QVQLVQSGAEVKKPGASVKVSCKASGYTFTSYWMHWVRQAPGQGLEWMGMIDPSDSETRLNQKFKDRVTMTRDTSTSTVYMELSSLRSEDTAVYYCARRFYYGSDWYFDVWGQGTLVTVSS
VL: DIQLTQSPSFLSASVGDRVTITCKASQDVGTAVAWYQQKPGKAPKLLIYWASTRHTGVPSRFSGSGSGTEFTLTISSLQPEDFATYYCQQYSSYPLTFGQGTKVEIK
modifications: human IgG1 constant regions; VH; VL
vascular leakage suppression compared with Fc ([1]; FA/ICGA, 14 days after laser photocoagulation): 38.3% | CNV regression compared with Fc (CD31+ CNV volume) ([1]; measured 14 days after laser photocoagulation): 65.3% | vascular leakage reduction between 6 and 14 days after laser photocoagulation ([1]; within-group): 50.0%

B2: 4B9: mouse monoclonal anti-Ang2 antibody; VH SEQ ID NO: 9, VL SEQ ID NO: 11; hybridoma KCLRF-BP-00418 (antibody, V domains shown)
VH: EVQLVESGGGLVKPGGSLKLSCAASGFTFSDYYMYWVRQTPEKRLEWVATISVGGSFTYYPDSVKGRFTISRDNAKNNLYLQMSSLKSEDTAMYYCARDWGLRPWFVYWGQGTLVTVSA
VL: DIVMTQSHKFMSTSVGDRVSITCKASQDVSTAVAWYQQKPGQSPKLLIYWASTRHTGVPDRFTGSGSGTDYTLTISSVQAEDLALYYCQQHYSTPPTFGSGTKLEIK
modifications: Heavy Chain Variable Region; Light Chain Variable Region
notes: mouse monoclonal anti-Ang2 antibody; hybridoma KCLRF-BP-00418
Relative Uptake (Da) Δ (hAng2-RBD; [2]): 0.25 Da | Relative Uptake (Da) Δ (hAng2-RBD; [3]): 0.34 Da | Relative Uptake (Da) Δ (hAng2-RBD; [4]): 0.83 Da | Relative Uptake (Da) Δ (hAng2-RBD; [5]): 0.78 Da | Relative Uptake (Da) Δ (hAng2-RBD; [6]): 0.60 Da | Relative Uptake (Da) Δ (hAng2-RBD; [7]): 0.01 Da | Relative Uptake (Da) Δ (hAng2-RBD; [8]): 0.33 Da | Relative Uptake (Da) Δ (hAng2-RBD; [9]): 1.50 Da | Relative Uptake (Da) Δ (hAng2-RBD; [10]): 1.35 Da | Relative Uptake (Da) Δ (hAng2-RBD; [11]): 0.80 Da | Relative Uptake (Da) Δ (hAng2-RBD; [12]): 0.15 Da | Relative Uptake (Da) Δ (hAng2-RBD; [13]): 1.02 Da | Relative Uptake (Da) Δ (hAng2-RBD; [14]): 0.92 Da | Relative Uptake (Da) Δ (hAng2-RBD; [15]): 1.15 Da | Relative Uptake (Da) Δ (hAng2-RBD; [16]): 1.18 Da | Relative Uptake (Da) Δ (hAng2-RBD; [17]): 0.05 Da | Relative Uptake (Da) Δ (hAng2-RBD; [18]): −0.13 Da | Relative Uptake (Da) Δ (hAng2-RBD; [19]): −0.06 Da | Relative Uptake (Da) Δ (hAng2-RBD; [20]): −0.01 Da | Relative Uptake (Da) Δ (hAng2-RBD; [21]): −0.11 Da | epitope of hAng2-RBD to which the antibody binds (hAng2-RBD; deuterium uptake difference 0.5-1 Da or more considered significant): residues 14 to 24 of SEQ ID NO: 2; also recorded: residues 41 to 47 of SEQ ID NO: 2 | Relative Uptake (Da) hAng2-RBD + 4B9 (hAng2-RBD; [2]): 0.55 Da | Relative Uptake (Da) hAng2-RBD + 4B9 (hAng2-RBD; [3]): 0.97 Da | Relative Uptake (Da) hAng2-RBD + 4B9 (hAng2-RBD; [4]): 1.38 Da | Relative Uptake (Da) hAng2-RBD + 4B9 (hAng2-RBD; [5]): 1.49 Da | Relative Uptake (Da) hAng2-RBD + 4B9 (hAng2-RBD; [6]): 1.66 Da | Relative Uptake (Da) hAng2-RBD + 4B9 (hAng2-RBD; [7]): 0.76 Da | Relative Uptake (Da) hAng2-RBD + 4B9 (hAng2-RBD; [8]): 1.27 Da | Relative Uptake (Da) hAng2-RBD + 4B9 (hAng2-RBD; [9]): 1.75 Da | Relative Uptake (Da) hAng2-RBD + 4B9 (hAng2-RBD; [10]): 2.05 Da | Relative Uptake (Da) hAng2-RBD + 4B9 (hAng2-RBD; [11]): 2.61 Da | Relative Uptake (Da) hAng2-RBD + 4B9 (hAng2-RBD; [12]): 0.16 Da | Relative Uptake (Da) hAng2-RBD + 4B9 (hAng2-RBD; [13]): 0.20 Da | Relative Uptake (Da) hAng2-RBD + 4B9 (hAng2-RBD; [14]): 0.43 Da | Relative Uptake (Da) hAng2-RBD + 4B9 (hAng2-RBD; [15]): 0.54 Da | Relative Uptake (Da) hAng2-RBD + 4B9 (hAng2-RBD; [16]): 0.61 Da | Relative Uptake (Da) hAng2-RBD + 4B9 (hAng2-RBD; [17]): 0.96 Da | Relative Uptake (Da) hAng2-RBD + 4B9 (hAng2-RBD; [18]): 1.94 Da | Relative Uptake (Da) hAng2-RBD + 4B9 (hAng2-RBD; [19]): 2.53 Da | Relative Uptake (Da) hAng2-RBD + 4B9 (hAng2-RBD; [20]): 2.69 Da | Relative Uptake (Da) hAng2-RBD + 4B9 (hAng2-RBD; [21]): 3.06 Da
